T1: 10-24aa
T1 construct: also called alpha-synuclein peptide 10-24
T1 peptide: {Biotin-Ahx}-KAKEGVVAAAEKTKQ

T2: 46-60aa
T2 construct: also called alpha-synuclein peptide 46-60
T2 peptide: {Biotin-Ahx}-EGVVHGVATVAEKTK

T3: 127-140aa
T3 peptide: {Biotin-Ahx}-MPSEEGYQDYEPEA

T4: 82-96aa
T4 construct: also called alpha-synuclein peptide 82-96
T4 peptide: {Biotin-Ahx}-VEGAGSIAAATGFVK

T5: 1-14aa
T5 construct: also called alpha-synuclein peptide 1-14
T5 peptide: MDVFMKGLSKAKEG-biotin

T6: 1-15aa
T6 construct: also called alpha-synuclein peptide 1-15
T6 peptide: {Biotin-Ahx}-MDVFMKGLSKAKEGV

T7: 118-132aa
T7 peptide: {Biotin-Ahx}-VDPDNEAYEMPSEEG

T8: 64-78aa
T8 construct: also called alpha-synuclein peptide 64-78
T8 peptide: {Biotin-Ahx}-TNVGGAVVTGVTAVA

T9: 91-105aa
T9 peptide: {Biotin-Ahx}-ATGFVKKDQLGKNEE

B1: ACI-7067-1108H1-Ab1 (antibody, V domains shown)
VH: EVKLVESGGGLVQPGGSMKLSCTASGFTFSDAWMNWVRQSPEKGLEWVAEIRNKAHNHATNYAESVKGRFTISGDDSKSSVYLQMNNLRAEDTGIYYCTIYSFWGQGTLVTVSA
VL: SIVMTQTPKFLLVSAGDRVTITCKASQSVTNYVAWYHQKPGQSPKLLIYSASNRYSGVPDRFTGSGYGTDFTFTINTVQTEDLAVYFCQQDYRIPYTFGGGTKLEIK
notes: mouse hybridoma mAb; VH/VL only; also called 1108H1E1
B2: ACI-7067-1101C8-Ab2 (antibody, V domains shown)
VH: EVQLVESGGGLVQPKGSLKLSCAASGFSFNIYAMNWVRQAPGKGLEWVARIRSKSNNYATYYADSVKDRFTISRADSESMLYLQMNNLKTEDTAMYYCVRVGLRFYAMDYWGQGTSVTVSS
VL: DVLMTQTPLSLPVSLGDQASISCRSSQSIVHSNGNTYLEWYLQKPGQSPKLLIYKVSNRFSGVPDRFSGSGSGTDFTLKISRVEAEDLGVYYCFQGSQGPLTFGAGTKLELK
notes: mouse hybridoma mAb; VH/VL only; also called 1101C8F7
B3: ACI-7079-2503C6-Ab1 (antibody, V domains shown)
VH: DVQLQESGPGLVKPSQSLSLTCSVTGYSITSGYYWNWIRLFPGNKLEWLGYINYDGSNNFNPSLKNRISITRDTSKNQFFLKLNSVTSEDTATYFCLRGDWDWGQGTLVTVSA
VL: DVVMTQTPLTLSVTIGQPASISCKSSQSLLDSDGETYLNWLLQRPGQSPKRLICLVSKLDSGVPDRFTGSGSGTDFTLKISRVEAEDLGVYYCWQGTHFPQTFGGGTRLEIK
notes: mouse hybridoma mAb; VH/VL only; also called 2503C6H9
B4: ACI-7079-2506E2-Ab2 (antibody, V domains shown)
VH: QVQLQQSGPELVRPGASVKISCKASGYAFSNSWMNWVKQRPGKGLEWIGRIFPGDGDTYYDGKFKGKVKLTTDKFSNTAYMQLRSLTSEDSAVYFCARWGGTNDEWFAHWGQGTLVTVSV
VL: DIVLTQSPASLTVSLGQRATISCRASQSVSTSRNSYMHWYQQKPRQPPKLLIKYASNLESGVPARFSGSGSGADFTLNIHPVEEEDTATYYCQHSWDIPLTFGTGTKLELS
notes: mouse hybridoma mAb; VH/VL only; also called 2506E2G4
B5: ACI-7079-2501G2-Ab2 (antibody, V domains shown)
VH: B2 VH with S28N, I31T, S53T, Y58F, D64H, A75D, V101Q, R104A, F105Y
VL: B2 VL with A19V, S28T
notes: mouse hybridoma mAb; VH/VL only; also called 2501G2E5
B6: ACI-7079-2511B3-Ab3 (antibody, V domains shown)
VH: B3 VH with Y27F, G32Y, L40Q, L49M, G50A, N53S, F60Y, S88T, F95Y, L97T
VL: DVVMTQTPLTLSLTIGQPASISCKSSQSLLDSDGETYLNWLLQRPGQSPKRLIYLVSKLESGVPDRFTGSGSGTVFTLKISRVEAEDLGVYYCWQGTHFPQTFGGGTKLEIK
notes: mouse hybridoma mAb; VH/VL only; also called 2511B3B12
B7: ACI-7067-1112H8-Ab2 (antibody, V domains shown)
VH: B1 VH with V5E, T23A, S30T, V48I, H58Y, N61Y, T71D, A90V, F103Y, Q106P
VL: SIVMTQTPKFLLMSPGDRVTMTCTASQSVSNYVAWYQQKPGQSPKLLIYSASNRFTGVPDRFTGSGYGTDFTFTINTVQTEDMAVYFCQQDYTSPYTFGGGTKLEIK
notes: mouse hybridoma mAb; VH/VL only; also called 1112H8C12
B8: ACI-7067-1116F2-Ab1 (antibody, V domains shown)
VH: DVQLQESGPGFVKPSQSLSLTCSVTGYSITRGFYWNWIRQFPGNKLEWMGYISDDGNSNYNPSLKNRISITRDTFKNQVFLRLNSVTTEDTATYYCTRGDLLWGQGTTLTVSS
VL: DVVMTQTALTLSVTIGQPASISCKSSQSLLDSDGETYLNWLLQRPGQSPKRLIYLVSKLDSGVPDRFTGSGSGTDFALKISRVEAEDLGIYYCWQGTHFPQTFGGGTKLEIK
notes: mouse hybridoma mAb; VH/VL only; also called 1116F2A2
B9: ACI-7067-1107G5-Ab2 (antibody, V domains shown)
VH: QVQLQQPGTELVKPGASVKLSCKASGYTFTKYWMHWVKQRPGQGLEWIGNINPNNGDTNYNEKFKSKATLTVDKSSSTAYMQLSSLTSEDSAVYYCAIAMDYWGQGTSVTVSS
VL: DIQMTQSPSSLSAFLGERVSLTCRASQDIGNNLNWFQQEPDGTIKRLIYATSSLDSGVPKRFSGSRSGSEYSLTISSLESEDFVDYYCLQFGSSPLTFGAGTKLELK
notes: mouse hybridoma mAb; VH/VL only; also called 1107G5B6
B10: ACI-7067-1111B12-Ab2 (antibody, V domains shown)
VH: B9 VH with Q5L, E10A, K13M, K31T, N54I, D57G, T58S, T69S, A97V
VL: B9 VL with F14S, N31I, N32S, S65N, E70D, V84A, G92A
notes: mouse hybridoma mAb; VH/VL only; also called 1111B12H10

This note sets out measurements from patent US20250340623A1 (AC IMMUNE, published 2025).

Positions count from the first letter of the chain named. Where no end group is shown, it is not given here. The star is where a group is joined. Biotin = O=C1N[C@H]2[C@H](CS[C@H]2CCCCC(=O)*)N1; Ahx = NCCCCCC(=O)O

For the first assay, the target named is alpha-synuclein seeds (UniProt P37840 1-140). Kind of assay: cell-based or functional assay.
For the molecule B1, the “aggregation half-time (τ1/2) of seeded alpha-synuclein aggregation, ThT; no antibody 26.9 hours” value (shortened to “aggregation half-time … no antibody 26.9 hours”) stood at 28 h.

For B2, the “aggregation half-time … no antibody 26.9 hours” value was found to be 64 h.

Turning to B3, the “aggregation half-time … no antibody 26.9 hours” value came to 22.5 h.

For the next assay, the target named is T1, 10-24aa. The assay is described as follows: indirect ELISA on biotinylated 15-mer peptide.
As to B4, the binding result was “no binding (tested: supernatant 1/100)”.

As for B5, the binding result was “no binding (tested: supernatant 1/100)”.

For B3, the binding result is listed as “no binding (tested: supernatant 1/100)”.

On to B6, for which the binding result is “no binding (tested: supernatant 1/100)”.

The next assay concerns the target T2, 46-60aa. Kind of assay: indirect ELISA on biotinylated 15-mer peptide. (ELISA stands for enzyme-linked immunosorbent assay.)
For B1, the binding result was “no binding (tested: supernatant 1/100)”.

B7: the binding result is recorded as “no binding (tested: supernatant 1/100)”.

Consider B4, for which the binding result is “no binding (tested: supernatant 1/100)”.

Take B8: the binding result is reported as “no binding (tested: supernatant 1/100)”.

On to B2, for which the binding result is listed as “no binding (tested: supernatant 1/100)”.

As to B5, the binding result is recorded as “no binding (tested: supernatant 1/100)”.

Turning to B3, the binding result is given as “no binding (tested: supernatant 1/100)”.

With B6, the binding result is on record as “no binding (tested: supernatant 1/100)”.

In another assay the target is T3, 127-140aa. The assay is described as follows: indirect ELISA on biotinylated 15-mer peptide.
In the case of B1, the binding result was “no binding (tested: supernatant 1/100)”.

Consider B7, for which the binding result is “no binding (tested: supernatant 1/100)”.

Take B4: the binding result is recorded as “no binding (tested: supernatant 1/100)”.

For B9, the binding result was “no binding (tested: supernatant 1/100)”.

As to B10, the binding result is listed as “no binding (tested: supernatant 1/100)”.

Take B8: the binding result is listed as “no binding (tested: supernatant 1/100)”.

Consider B2, for which the binding result is reported as “no binding (tested: supernatant 1/100)”.

In the case of B5, the binding result is listed as “no binding (tested: supernatant 1/100)”.

As for B3, the binding result is “no binding (tested: supernatant 1/100)”.

Take B6: the binding result was “no binding (tested: supernatant 1/100)”.

For another assay, the target named is T4, 82-96aa. The assay is described as follows: indirect ELISA on biotinylated 15-mer peptide.
Turning to B1, the binding result is “no binding (tested: supernatant 1/100)”.

With B7, the binding result is given as “no binding (tested: supernatant 1/100)”.

In the case of B4, the binding result was “no binding (tested: supernatant 1/100)”.

In the case of B9, the binding result was “no binding (tested: supernatant 1/100)”.

With B10, the binding result is reported as “no binding (tested: supernatant 1/100)”.

B2: the binding result is on record as “no binding (tested: supernatant 1/100)”.

With B5, the binding result is given as “no binding (tested: supernatant 1/100)”.

A further assay deals with T5, 1-14aa. Kind of assay: indirect ELISA on biotinylated 15-mer peptide.
Turning to B4, the binding result is given as “no binding (tested: supernatant 1/100)”.

For the molecule B5, the binding result is “no binding (tested: supernatant 1/100)”.

B3: the binding result was “no binding (tested: supernatant 1/100)”.

Turning to B6, the binding result is on record as “no binding (tested: supernatant 1/100)”.

The target of another assay is T6, 1-15aa. The assay is described as follows: indirect ELISA on biotinylated 15-mer peptide.
Take B4: the binding result is “no binding (tested: supernatant 1/100)”.

For the molecule B5, the binding result was “no binding (tested: supernatant 1/100)”.

As for B3, the binding result was “no binding (tested: supernatant 1/100)”.

Regarding B6, the binding result was “no binding (tested: supernatant 1/100)”.

A further assay deals with T7, 118-132aa. The assay is described as follows: indirect ELISA on biotinylated 15-mer peptide.
B1: the binding result is “no binding (tested: supernatant 1/100)”.

Regarding B7, the binding result was “no binding (tested: supernatant 1/100)”.

On to B9, for which the binding result was “no binding (tested: supernatant 1/100)”.

Regarding B10, the binding result was “no binding (tested: supernatant 1/100)”.

In the case of B8, the binding result is listed as “no binding (tested: supernatant 1/100)”.

Take B3: the binding result was “no binding (tested: supernatant 1/100)”.

For B6, the binding result was “no binding (tested: supernatant 1/100)”.

In another assay the target is T8, 64-78aa. Kind of assay: indirect ELISA on biotinylated 15-mer peptide.
B9: the binding result is recorded as “no binding (tested: supernatant 1/100)”.

Consider B10, for which the binding result was “no binding (tested: supernatant 1/100)”.

On to B8, for which the binding result was “no binding (tested: supernatant 1/100)”.

As for B2, the binding result is given as “no binding (tested: supernatant 1/100)”.

In the next assay the target is T9, 91-105aa. The assay is described as follows: indirect ELISA on biotinylated 15-mer peptide.
B4: the binding result is listed as “no binding (tested: supernatant 1/100)”.

As to B5, the binding result is on record as “no binding (tested: supernatant 1/100)”.

Regarding B3, the binding result is “no binding (tested: supernatant 1/100)”.

On to B6, for which the binding result was “no binding (tested: supernatant 1/100)”.

Another assay concerns the target T2, 46-60aa. Kind of assay: indirect ELISA on biotinylated 15-mer peptide, supernatant 1/100.
In the case of B9, the binding result is “binds”.

B10: the binding result is recorded as “binds”.

The next assay concerns the target T4, 82-96aa. Described as above.
For the molecule B8, the binding result was “binds”.

For B3, the binding result is on record as “binds”.

B6: the binding result is “binds”.

The target in the next assay is T7, 118-132aa. The assay is described as above.
Turning to B4, the binding result is “binds”.

Consider B2, for which the binding result is given as “binds”.

Regarding B5, the binding result is recorded as “binds”.

For another assay, the target named is T8, 64-78aa. Described as above.
Turning to B1, the binding result was “binds”.

Consider B7, for which the binding result is listed as “binds”.
